The values below come from publication PMC12830800.

The target in this assay is Coxsackievirus A6 (CVA6) strain 54203/HeB/CHN/2012 mature virion (coxsackievirus A6 strain 54203/HeB/CHN/2012).

B1: His-tagged human KRM1 ectodomain (residues A23-G373) (domain or fragment)
chain: APSPGLGPECFTANGADYRGTQNWTALQGGKPCLFWNETFQHPYNTLKYPNGEGGLGEHNYCRNPDGDVSPWCYVAEHEDGVYWKYCEIPACQMPGNLGCYKDHGNPPPLTGTSKTSNKLTIQTCISFCRSQRFKFAGMESGYACFCGNNPDYWKYGEAASTECNSVCFGDHTQPCGGDGRIILFDTLVGACGGNYSAMSSVVYSPDFPDTYATGRVCYWTIRVPGASHIHFSFPLFDIRDSADMVELLDGYTHRVLARFHGRSRPPLSFNVSLDFVILYFFSDRINQAQGFAVLYQAVKEELPQERPAVNQTVAEVITEQANLSVSAARSSKVLYVITTSPSHPPQTVPG
The molecule B1 displayed a share of A-particles among the particles after incubation of virions with KRM1 ectodomain (1:120, 35 min, room temperature; cryo-EM classification); none in the untreated sample of 69.8%.
